The nature of the data set: label from the status in PepcDB records.
As to “MAQRSILVGQIWHEGHSFNPILTREKDFLFLRGEAVLEEARASSTALSGIVKTAEALGYRCVPSISARARPGGAIEQKVFDNIVDEFVQAARMQDFDAICLDLHGATLAEHTLDTEGYLLSRLREVVGNDIMISLALDLHAYLTPQMVEQATIITSFRTTPHADIEETGVRAMTLLDSLSNETRPPRAIYSLIPFLTRGNDETWSGPLAEIGAAADRWRARSDVVDLSIFNVHPFLDVPGYGQVVLAYDNGSGAAIDACRDLSDMLWKARDEFQEQLMSVDKALEIARTSRQLLALGDQGDRVMGAGPGDSPEIARVALEHFPGLKVAVPVYDPQAVRTAREAGENATVRMAVGGAFTHSVAPLERDWTVRKLCRARFTNIGPYMAGTEADFGDAAVLTCDAVTVIVTTMAPNVHDPAFYEAVGVPLASQQAVVARAANHYKLSFADIARTITVDTPGLTAFKPHQFPFTQARPFYPLDIVQWSFAPLECNKVG”, the protein production entry is listed as “not failed”.
Next, “MSFDISELLTLYDVVTFSFPERYEDLMREIIEKATRLFGVRRLAIVLREGERYKCIERWGFRRDEEVLERIKNGGENSFIYLMRNGEQGLLYIEPPGRISEREKRLYTIFARRIENIIARKQIEEKIKNSEQEKKVILDSIVELLVFQNPDNRILWANRAAAEYAGARSEELAGRFCYEALHHRDEPCEECPVIKALDTGVPQEGIIASLEGRQFFVRGYPVKKENGLIEGIVEVSVDVTERMQAEEAFRTIFNSVHDAIFIHTLDGKIIDVNQTMLRMYVINSKEEAIKLSIIDDYSIPGSTAEQLPLLWQKVISGENLLFEWKARRPVDGSVFDVEVFLKKISLSKKDVILAAVRDITERKREEELLRNLFTHSPIGMYIVSEGKFQLINPQFEILTGYRQDKLIGMESLNLVVPEDRKMVRSNAIKMLKGEAVEPYEFRIVTGQGDIRWMEETVASIWHDGKRVTLGNIIDITQKKKFEQKLAYISLHDQLTALYNRAYFEEELKRLSTSRKYPITIIVADVNGLKLVNDTMGHDKGDELLTACARVLKKAFRSSDVVARVGGDEFVALLPRTDGKTGKSILKRLRLFIDKYNQEHPELPLSVSFGIATADTPEQSLKEIYKKADDLMYQEKLNLGSSARSKIVNALLTALSERDYITEGHARRMQKLCQDLGEKVGLSAQQLANLSLLAQVHDLGKVGIPDRILFKRGPLTEKEWEVMRQHPEKGYRIAMSSPDLAGIADLILKHHEKWDGTGYPLGLKEEEIPIECRILSIVDAFDAMTSGRPYCRTKTIEDALKEIRRCAGTQFDPRLAEAFIEMITSEKFTAGEKEVAT”: “failed”; “MGITDGVVVDLGGGTTGISILEKGKVIFVADEPTGGTHMTLVLAGSYGIDFETAEDIKTDKKKEKEVFVQITPVLQKMAAIVKKYIKDYKVKDVFLVGGACSFDGSESIFERELGLNIYKLEHHHHHH”: “failed”.
Under “MAETAAGVGRFKTNYAVERKIEPFYKGGKAQLDQTGQHLFCVCGTRVNILEVASGAVLRSLEQEDQEDITAFDLSPDNEVLVTASRALLLAQWAWQEGSVTRLSKAIHTAPVATMAFDPTSTLLATGGCDGAVRVWDIVRHYGTHHFRGSPGVVHLVAFHPDPTRLLLFSSATDAAIRVWSLQDRSCLAVLTAHYSAVTSLAFSADGHTMLSSGRDKICIIWDLQSCQATRTVPVFESVEAAVLLPEEPVSQLGVKSPGLYFLTAGDQGTLRVWEAASGQCVYTQAQPPGPGQELTHCTLAHTAGVVLTATADHNLLLYEARSLRLQKQFAGYSEEVLDVRFLGPEDSHVVVASNSPCLKVFELQTSACQILHGHTDIVLALDVFRKGWLFASCAKDQSVRIWRMNKAGQVMCVAQGSGHTHSVGTVCCSRLKESFLVTGSQDCTVKLWPLPKALLSKNTAPDNGPILLQAQTTQRCHDKDINSVAIAPNDKLLATGSQDRTAKLWALPQCQLLGVFSGHRRGLWCVQFSPMDQVLATASADGTIKLWALQDFSCLKTFEGHDASVLKVAFVSRGTQLLSSGSDGLVKLWTIKNNECVRTLDAHEDKVWGLHCSRLDDHALTGASDSRVILWKDVTEAEQAEEQARQEEQVVRQQELDNLLHEKRYLRALGLAISLDRPHTVLTVIQAIRRDPEACEKLEATMLRLRRDQKEALLRFCVTWNTNSRHCHEAQAVLGVLLRREAPEELLAYEGVRAALEALLPYTERHFQRLSRTLQAAAFLDFLWHNMKLPVPAAAPTPWETHKGALP” stands “failed”.
Next, “MQNSFLPLNTRRFRQRAQVETPDTVYWDRLAKPELLKEHNTIDYLDFSPSDPDNFVVTCSVRVQIYNLVTMLVVKNLSRFQKTAYGATFRQDGRLLAAGDEEGHVKLFDTTSRNILRLFKGHTAPVHRTFFTADKLQLASFGDDKSVRLWDVANEKVVQTYEDTHTDYVRAGAMHPQAGHMFVSGGYDGKIKLYDTRAETAVQRTLDHGAPVESMLFLPNGSIFVSAGGSQVRVWDLISGCRLLTMMSQHHKTVTCLRLGSDGRRLLSGGLDRHVKIYDVSTYKTVHTLTYPNAVVSMAVADGDQAVVAGMVDGLVSIRRMMVDSKPSHLKKIRADRARKYFVSTKRTNNTQEVDHTIKDHVKGPGLKSYDVHLRQFNHKKALDDVMNAQKMQYQPELIVAVITDLLHRGSLGKALTGRHEAALVRFIDFICNHLGEVRFMRPLMMAASTVLDVFEQRLVAYSQKLMKALQRLSLAMQEEVRLTAELMRMKGAVDMLIGISMDNSEVAHKPTYVETKTPKMHPSVAAQNYVVLVE”: “failed”; “MSQLEKAQAEYAGFIQEFQSAIISTISEQGIPNGSYAPFVIDDAKNIYIYVSGLAVHTKNIEANPLVNVLFVDDEAKTNQIFARRRLSFDCTATLIERESQKWNQVVDQFQERFGQIIEVLRGLADFRIFQLTPKEGRFVIGFGA”: “not failed”.
With “MMTVVKGLVTFRPMFALVLLSALVGCASAPKKAPPPSSFDATMSRAEAEVTNGGPEQALKTFEDAGRADPTRKEPWVRIAQLQFDRANYARAIVAAQEVLQRDPNDLVADGVLTVAGFRIANQSLQRLQGRGALVSGTARKEAEMLASTLRATMGDDILQPDEPKKRKPVRNARRAAPPAAKDAAPPKQTPNASADPFQNLGGN”, the protein production entry was “failed”.
As to “HRPLNPAMVAFSNDPLLNDLALNSSYSLLFAVNNMKSEKSAEQFYGKMDNQKMLDLVRASSTKIDFDPTLLPTMNSNPATYQGKRKNLVILLQESLGAQFVGSLGGLPLTPNLDELMQEGWQFTQMYATGTRSVRGIEAVTTGFPPSPSRAVVKLSKSQTGFFTIADLLKEQGYHTQFIYGGEANFDNMKTFFFGNGFDQIVEEKNYTNPGFVGSWGVSDEDLYNKADEEFERLSKGDKPFFSLVFTSSNHSPYEYPEGKIEQYDSEHMTRNNAVKYSDYALGTFFDKAKKSSYWDDTIFIVIADHDARVFGANLVPVKHFHIPALIIGKDIQPRKDDRIANNIDMPPTLLSLIGVDAKTPMIGRDLTKPLAREDERAMMQYDKNFGYLTRDNLVVLSPGEKVSTMEYDFESQTMKPLEVDESVIDRAKANALFASKAYQNNWYSSKRTN”, the protein production entry is on record as “not failed”.
For the sequence “VELLQVDADLQAEIVGKYNADLQKAVQIEEKKAREIATEAVKEHVTAEYEERYAEHEEHDRIMRDVAEILEQMEHAEVRRLITEDKVRPD”, the protein production entry is “not failed”.
Under “AIASSAIERKSLDPSEEPVDEVLQIPPSLLTCGGCQQNIGDRYFLKAIDQYWHEDCLSCDLCGCRLGEVGRRLYYKLGRKLCRRDYLRLFGQDGLCASCDKRIRAYEMTMRVKDKVYHLECFKCAACQKHFCVGDRYLLINSDIVCEQDIYEWTKINGMI” stands “failed”; under “MSQSLIAALQNPALFPHPVESFQVIETHISWVLLTGPYAYKFKKPMNFGFLDFTTLALREHFCQEELRLNKRLTDDMYLEVLPITGTAQAPQLGGDGDVIEYALKMKQFSQDGLLSTLQANGELTTAHIDELARQIADFHLDSPHVTAESELGSPDSVMAPVVQNFEQIRPLISEKSDLEQLDALQAWAESSFERLKPLLAQRKADGFIRECHGDIHLGNATVIDGKVVLFDCIEFNEPFRKTDVYADIGFLAMDLEDRGLKSLSRRLVSQYLEVTGDYVGLELLNFYKAYRAMVRAKVALFSQPADADGVQRAATLRQYRNYANLAESYSAIPSRFLTITHGVSAVGKSHVAMRLVESLGAIRLRSDIERKRLFAEGGEDLYGDEASSATYARLHELAGKTLRAGFSVVIDATYLKREQRDAAAKVAENTGVPFLILDCEAPQAVIASWLAQRQAQNNDPSDATLQVIEAQQASRELLSADEVLCSKKVATNIGSDLDSLVDNLRQRLPGLLEHHHHHH”, “not failed”; under “MVRVPLTAEELERGQRLGELLRSARGDMSMVTVAFDAGISVETLRKIETGRIATPAFFTIAAVARVLDLSLDDVAAVVTFGPVSTS”, “not failed”.
“MEDFWVQYGDEMLPVIGDFPRKGDYLPSFMLVDDQKHDAALESFSHTPKLIVTLLSVDEDEHAGLLLLRETRRFLDSWPHLKLIVITVDSPSSLARARHEHGLPNIALLSTLRGRDFHKRYGVLITEYPLSGYTSPAIILADAANVVHYSERLANTRDFFDFDAIEKLLQEGEQQAMAAEREAAEARQEQDAEREKGTERLLEKAKLIQDQLNRNGDPGR”: the protein production result is “not failed”.
Next, “MKTPTFGKREETLTYQTRYAAYIIVSKPENNTMVLVQAPNGAYFLPGGEIEGTETKEEAIHREVLEELGISVEIGCYLGEADEYFYSNHRQTAYYNPGYFYVANTWRQLSEPLERTNTLHWVAPEEAVRLLKRGSHRWAVEKWLAAAS”: “not failed”; “MNLETIPSGELTVSNQRSISRLVAQAGQMLLAHGAESTLVCDIMRRIGLACGVHEVAVALSANALVVTTVMDGHCITTTRSCADRGINMRVITQIQRICIMMERGLLDAAMAQKKLNTISPERYNRWLVVLMIGLSCAAFSHLAGGDWGVFIMTFLASAGGMIVRQEIGHRHFNPLLNFAATAFVTTLISAQAEIYQIGNLPTVAMASSVLMLVPGFPLINSVADMLKGHINMGIARFVMASLLTLATCLGIVAAMSVTGIWGWAI”: “failed”; “LRKMIALIHKDYAKNLRLETLASVFNYNRAYLGKLFKNYTGEYFNTYLDKVRIENGKRLLQKGYKVYEVAEKIGYANVDYFHRKFKKYVGVSPSTFRKRHDHLQVYHD”: “failed”.
Consider “MIESIQELLQKEAQAVLNIPVTDAYEKAVELIVEQIHRKKGKLVTSGMGKAGQIAMNIATTFCSTGIPSVFLHPSEAQHGDLGILQENDLLLLISNSGKTREIVELTQLAHNLNPGLKFIVITGNPDSPLASESDVCLSTGHPAEVCTLGMTPTTSTTVMTVIGDILVVQTMKRTEFTIEEYSKRHHGGYLGEKSRKLCVK”, for which the protein production result was “not failed”.
Next, “MSTSFTMIGGEGPNSYREHSKYQGALVIAAKEKINEAISTKLDIDFTSNLVNIADFGCSSGPNTFTAVQTLIDAVENKYKKESNIEGIEFQVFFNDSSNNDFNTLFKTLPPARLYFASGVPGSFFGRVLPKNSLHVGVSSYSLHFVSKVPKEIKDRDSLVWNKDIHCSGSSKEVVKLYLGQYKIDVGSFLTARAQELVSGGLLLLLGSCRPTGVQMFETVEGMMIDFIGSSLNEIANQGLIDQQKLDTFKLPIYAPNVDELKQIIEDNKCFTIEAFEKISHAKGEYPLDPEYLTSAFKVTVGGSVASLFGQDGMEKTYELVKEKTQEMLPQIAKAKPGMQYLIVLRRN”: “failed”; “MRYLADHDDLTGLHNRRALLQHLDQRLAPGQPGPVAALFLDLDRLKAINDYLGHAAGDQFIHVFAQRIGDALVGESLIARLGGDEFVLIPASPMSADAAQPLAERLRDQLKDHVAIGGEVLTRTVSIGVASGTPGQHTLEHHHHHH”: “not failed”; “MPKAINYKANSVVYFSGDFDERVFLLNTGSIALTSIDIETGEQVTDYIKTGEFFGVKSALGNYPREESAMVLTDSIVYSFTSKEFEAFAQTNTRIILQMIKVFSRQLRTIHKQLASLLDSEEEKNPEEGLFNVMNAFYSSQHYKAAGQVGTRYKAIYPNGKYISQVDQIVRSTAEVAGRSFGNAEGHNNDAVLAHHEKPAAVTDGTVHLAYNKAEDLFEKGEFEAAYDQYHAVIEAGAGDEITDNAYIGAGKSLHSQKEYVRCLQLLTGFISQHPKSSKIGDALMYLGMCYMDMERPDKAIAFFDKAAILSGADIIGKIRELQKECSSRLQGA”: “failed”.

The record behind these values is a protein production outcome set (Wang et al. 2014).
